The values that follow come from article PMC8960791 (2022).

The experiment concerns the target soluble HLA-E-VL9, HLA-E*01:03 heavy chain refolded with β2-microglobulin and synthetic VL9 peptide (human | ). Nature of the experiment: SPR. Background: SPR reads the build-up and loss of mass on a sensor chip optically.

B1: 3H4 IgG, recombinant 3H4 in a human IgG1 backbone (antibody, V domains shown)
VH: EVQLQESGPELVKPGASVKIPCKASGYTFTDYNMDWVKQSHGKSLEWIGDINPNNGGTIYNQKFKGKATLTVDKSSSTAYMELRSLTSEDTAVYYCARPDYYGSSYGWYFDVWGTGTTVTVSS
VL: DIVITQSPSSMYASLGERVTITCKASQDINSYLSWFQQKPGKSPKTLIYRANRLVDGVPSRFSGSGSGQDYSLTISSLEYEDMGIYYCLQYDEFPLTFGAGTKLELK
Regarding B1, the koff (in general, the first-order rate constant of dissociation) was 0.51 s⁻¹.
